Consider four molecules from US10300024B2, “Proteinoid compounds, process of preparing same and uses thereof” (Bar-Ilan University, priority 2015, dated 2019).

Data set [1] in a line: Photostability under xenon lamp illumination. Type of data set: physicochemical. The following applies: continuous illumination, 20 min. The method, then:
An aqueous solution of ICG ([…]) in PBS was prepared, and the fluorescence intensity with λex set at 780 nm and λem set at 800 nm was measured. A dispersion of NIR fluorescent P(EF-PLLA) nanoparticles in PBS was prepared, and diluted to give a similar fluorescence intensity to the dye at the same wavelengths. The excitation and emission slits were opened to 20 nm and 5 nm, respectively. Each of the samples was illuminated continuously with a xenon lamp, and the fluorescence intensity was measured over a period of 20 min by a Cary Eclipse fluorescence spectrophotometer (Agilent Technologies Inc.). Intensity values were normalized for comparison.

The conditions of data set [2]: cited from earlier work.
In data set [3] the test system is HCT116 human colon cancer cells. As to the kind of experiment: XTT cell viability, HCT116. The data set is classed as cell-based. How it is done:
HCT116 human colon cancer cells were treated with 0.01 mg/mL NPs, hollow or containing 1.66 μg Dox, non-conjugated and conjugated to 35 ng TRAIL. Free Dox, free TRAIL and PBS served as control groups. Absorption was measured for all samples, each in six, with TECAN spectrophotometer to determine the cell viability. […] It was chosen to continue with the TRAIL-PEG-Dox NPs, as PEGylation modifies the physical and chemical properties of the drug, and can decrease immunogenicity and improve drug solubility.

Take `CC1(C)C(/C=C/C=C/C=C/C=C2\N(CCCCS(=O)(=O)O)c3ccc4ccccc4c3C2(C)C)=[N+](CCCCS(=O)(=O)[O-])c2ccc3ccccc3c21` [free ICG, indocyanine green]: the “fluorescence intensity during illumination” value in data set [1] is on record as “decreased significantly”.

For `N[C@@H](Cc1c[nH]cn1)C(=O)O` [histidine], in data set [2], the “pKa of α-amine group” value was 9.33.

B1: PEG-TRAIL NPs: hollow NPs (without Dox) conjugated to TRAIL via PEG (conjugate, UniProt P50591 1-281, looked up)
Tumor necrosis factor ligand …: MAMMEVQGGPSLGQTCVLIVIFTVLLQSLCVAVTYVYFTNELKQMQDKYSKSGIACFLKEDDSYWDPNDEESMNSPCWQVKWQLRQLVRKMILRTSEETISTVQEKQQNISPLVRERGPQRVAAHITGTRGRSNTLSSPNSKNEKALGRKINSWESSRSGHSFLSNLHLRNGELVIHEKGFYYIYSQTYFRFQEEIKENTKNDKQMVQYIYKYTSYPDPILLMKSARNSCWSKDAEYGLYSIYQGGIFELKENDRIFVSVTNEHLIDMDHEASFFGAFLVG
modifications: PEG-linked to hollow nanoparticles
B1: in data set [3] (0.01 mg/mL NPs, 24 h and 72 h), the toxic effect result is “did not have a toxic effect”.

B2: free TRAIL: TNF-related apoptosis-inducing ligand (protein, UniProt P50591 1-281, looked up)
Tumor necrosis factor ligand …: MAMMEVQGGPSLGQTCVLIVIFTVLLQSLCVAVTYVYFTNELKQMQDKYSKSGIACFLKEDDSYWDPNDEESMNSPCWQVKWQLRQLVRKMILRTSEETISTVQEKQQNISPLVRERGPQRVAAHITGTRGRSNTLSSPNSKNEKALGRKINSWESSRSGHSFLSNLHLRNGELVIHEKGFYYIYSQTYFRFQEEIKENTKNDKQMVQYIYKYTSYPDPILLMKSARNSCWSKDAEYGLYSIYQGGIFELKENDRIFVSVTNEHLIDMDHEASFFGAFLVG
Turning to B2, the cell viability course result in data set [3] (after 72 h) was “recovery in the cell viability”. For the same molecule, the toxicity entry in data set [3] (over 24 h) is recorded as “good toxicity”.
